# Data reported in patent publication EP4793286A1 (Shanghai Scizeng Medical Technology Co., Ltd., dated 2026).
# Read-outs that look alike come from different tables or passages of the source.
# T1: cPD-1 on CHOS-cPD-1 cells (Macaca fascicularis, UniProt Q15116 25-288 (human entry))
# T1 chain: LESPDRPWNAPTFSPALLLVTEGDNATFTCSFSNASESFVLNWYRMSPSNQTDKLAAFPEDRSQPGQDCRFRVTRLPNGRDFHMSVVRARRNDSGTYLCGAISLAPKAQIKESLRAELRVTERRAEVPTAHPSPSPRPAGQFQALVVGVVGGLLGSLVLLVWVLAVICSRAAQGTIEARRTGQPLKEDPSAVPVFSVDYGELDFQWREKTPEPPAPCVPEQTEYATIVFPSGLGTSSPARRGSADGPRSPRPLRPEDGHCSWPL
# T2: cPD-1 ECD-Avi-His (Macaca fascicularis, UniProt Q15116 25-170 (human entry))
# T2 construct: tied to the construct by its name only; not shown: Avi tag and His tag
# T2 chain: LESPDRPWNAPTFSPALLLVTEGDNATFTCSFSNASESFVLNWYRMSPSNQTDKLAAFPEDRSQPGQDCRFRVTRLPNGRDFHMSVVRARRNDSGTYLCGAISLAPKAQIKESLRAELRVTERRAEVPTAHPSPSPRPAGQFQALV
# T3: hCD32A (167 His, His Tag, Sino Biological, 10374-H08C1) (human, UniProt P12318 34-218)
# T3 construct: Bought protein; not shown: His tag
# T3 sequence (looked up): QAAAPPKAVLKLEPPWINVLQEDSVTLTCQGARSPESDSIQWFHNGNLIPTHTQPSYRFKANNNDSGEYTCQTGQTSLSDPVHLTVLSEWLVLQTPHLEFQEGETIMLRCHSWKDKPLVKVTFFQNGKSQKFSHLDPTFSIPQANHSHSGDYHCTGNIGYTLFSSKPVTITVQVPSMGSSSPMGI
# T4: hCD32B (ECD, His tag, Sino Biological, 10259-H08C) (human, UniProt P31994 43-217)
# T4 construct: extracellular domain; Bought protein; not shown: His tag
# T4 sequence (looked up): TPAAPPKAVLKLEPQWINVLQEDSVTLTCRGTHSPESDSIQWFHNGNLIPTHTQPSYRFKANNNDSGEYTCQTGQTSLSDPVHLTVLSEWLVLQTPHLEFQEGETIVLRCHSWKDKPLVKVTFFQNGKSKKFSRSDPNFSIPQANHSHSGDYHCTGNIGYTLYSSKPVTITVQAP
# Columns and labels:
# [1] = target: T5, PD1 on Jurkat-PD1-NFAT reporter cells (UniProt Q15116 25-288, limits assumed); experiment: cell-based or functional assay
# T5 sequence (Q15116 25-288 limits assumed): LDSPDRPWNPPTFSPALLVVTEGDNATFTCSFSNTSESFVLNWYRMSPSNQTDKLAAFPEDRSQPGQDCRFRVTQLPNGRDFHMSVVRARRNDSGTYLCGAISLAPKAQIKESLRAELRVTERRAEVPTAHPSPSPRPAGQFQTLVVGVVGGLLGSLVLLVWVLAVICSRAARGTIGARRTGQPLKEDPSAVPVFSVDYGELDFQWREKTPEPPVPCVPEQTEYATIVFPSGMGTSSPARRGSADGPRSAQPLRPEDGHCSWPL
# [2] = target: T5, PD1 on Jurkat-PD1-NFAT reporter cells; experiment: cell-based or functional assay; remark: listed apart in the source
# [3] = target: T6, hPD-1 on CHOS-hPD-1 cells (Homo sapiens, UniProt Q15116 25-288); experiment: cell-based or functional assay
# T6 sequence (Q15116 25-288 limits assumed): as above
# [4] = target: T1, cPD-1 on CHOS-cPD-1 cells; experiment: flow cytometry on CHOS-cPD-1 cells, MFI, 4-parameter fit
# [5] = target: T6, hPD-1 on CHOS-hPD-1 cells; experiment: flow cytometry on CHOS-hPD-1 cells, MFI, 4-parameter fit
# [6] = target: T7, hPD-1 ECD-Avi-His (human, UniProt Q15116 25-170); experiment: SPR (Biacore 8K), antibody captured on Protein A chip, antigen flowed as analyte
# T7 construct: tied to the construct by its name only; not shown: Avi tag and His tag
# T7 sequence (Q15116 25-170): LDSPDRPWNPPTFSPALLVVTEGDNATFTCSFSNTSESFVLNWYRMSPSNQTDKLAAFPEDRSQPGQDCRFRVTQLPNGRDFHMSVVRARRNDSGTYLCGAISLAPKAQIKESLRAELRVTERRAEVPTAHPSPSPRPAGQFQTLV
# [7] = target: T2, cPD-1 ECD-Avi-His; experiment: as above
# [8] = target: T3, hCD32A (167 His, His Tag, Sino …); experiment: SPR (Biacore 8K), His-tagged Fc receptor captured by anti-His antibody on CM5 chip, antibody flowed as analyte
# [9] = target: T4, hCD32B (ECD, His tag, Sino Biological, …); experiment: as above
# [10] = target: T8, hCD16A(158F)-ECD-C-his (human, UniProt P08637 17-208); experiment: as above
# T8 construct: extracellular domain; Homemade; not shown: C-terminal His tag
# T8 sequence (P08637 17-208): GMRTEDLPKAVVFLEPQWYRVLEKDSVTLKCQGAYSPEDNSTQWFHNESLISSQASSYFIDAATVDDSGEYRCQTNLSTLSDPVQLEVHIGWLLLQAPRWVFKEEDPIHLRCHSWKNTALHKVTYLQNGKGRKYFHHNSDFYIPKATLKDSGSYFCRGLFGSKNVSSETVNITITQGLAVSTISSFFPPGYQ
# [11] = target: T9, hCD16A(158V)-ECD-C-his (human, UniProt P08637 17-208); experiment: as above
# T9 construct: extracellular domain; Homemade; not shown: C-terminal His tag
# T9 sequence (P08637 17-208 F176V): as the sequence (P08637 17-208) above, with F160V counted along it
# [12] = target: T3, hCD32A (167 His, His Tag, Sino …); experiment: SPR; ratio against 1C4-zu1-hIgG1; end of the range assigned by Table 7
# [13] = target: T4, hCD32B (ECD, His tag, Sino Biological, …); experiment: SPR; ratio against 1C4-zu1-hIgG1; end of the range assigned by Table 8
# [14] = target: T8, hCD16A(158F)-ECD-C-his; experiment: SPR; ratio against 1C4-zu1-hIgG1; end of the range assigned by Table 9
# [15] = target: T9, hCD16A(158V)-ECD-C-his; experiment: SPR; ratio against 1C4-zu1-hIgG1; end of the range assigned by Table 10
# [16] = target: T3, hCD32A (167 His, His Tag, Sino …); experiment: SPR; ratio against 1B5-zu1-hIgG1; end of the range assigned by Table 7
# [17] = target: T4, hCD32B (ECD, His tag, Sino Biological, …); experiment: SPR; ratio against 1B5-zu1-hIgG1; end of the range assigned by Table 8
# [18] = target: T8, hCD16A(158F)-ECD-C-his; experiment: SPR; ratio against 1B5-zu1-hIgG1; end of the range assigned by Table 9
# [19] = target: T9, hCD16A(158V)-ECD-C-his; experiment: SPR; ratio against 1B5-zu1-hIgG1; end of the range assigned by Table 10
EC50 of inhibition of Jurkat-PD1-NFAT reporter cell activation [1] [nM],EC50 of inhibition of Jurkat-PD1-NFAT reporter cell activation [2] [nM],"EC50 of ADCC (LDH release, human NK cells, target cells CHOS-hPD-1) [3] [nM]",EC50 [4] [nM],EC50 [5] [nM],Kd [6] [nM],koff [6] [s⁻¹],kon [6] [M⁻¹ s⁻¹],Kd [7] [nM],koff [7] [s⁻¹],kon [7] [M⁻¹ s⁻¹],Kd [8] [nM],Kd [9] [nM],Kd [10] [nM],koff [10] [s⁻¹],kon [10] [M⁻¹ s⁻¹],Kd [11] [nM],koff [11] [s⁻¹],kon [11] [M⁻¹ s⁻¹],Binder,further results
0.14,–,–,–,–,–,–,–,–,–,–,–,–,–,–,–,–,–,–,"B1-1C4-H1L1 (antibody, human IgG1, kappa, V domains shown) VH: EVQLQQSGDDLVKPGASVKLSCKASGYTFTSYWITWIKQRPGQGLEWIGRIAPGSGSIYYDEMFKDKATLTVDPSSSTAYIQLSSLSSEDSAVYFCARLGNYGWTMDYWGQGTSVTVSS VL: DIVMTQTPKFLLVSAGDRVTITCKASQSVTNNVAWYQQAPGQSPKLLIYYVSNRYTGVPDRFAGSGYGTDFTFTISTVQAEDLAVYFCQQDYSSWTFGGGTKLEIKR",–
0.12,–,–,–,–,–,–,–,–,–,–,–,–,–,–,–,–,–,–,"B1-1B5-H1L1 (antibody, human IgG1, kappa, V domains shown) VH: EVQLQQSGAELVKPGASVKMSCKAFGYTFTNYPIEWMKQSHGKSLEWIGNFHPYNDDTKYNEKFKGKAKLTVEKSSSTVYLELSRLTSDDSAVYYCAREDYGTYGGFAYWGQGTLVTVSS VL: EITVTQSPAIMSASPGEKVTMTCRASSSVSSSYLLWYQQKSGASPKLWIYSTSNLASGVPARFSGSGSGTSYSLTISSVEAEDAATYYCQQYSGYPLTFGAGTKLELKR",–
–,0.12,0.0019,20.3,14.3,8.26,0.00195,236000,15.6,0.00392,251000,4940,10000,222,0.0248,112000,80.2,0.00775,96600,"1C4-zu1-hIgG1 (antibody, Humanized form of B1-1C4-H1L1; human IgG1 / kappa) heavy: not shown light: DIVMTQSPKSLAVSLGERATINCKASQSVTNNVAWYQQKPGQPPKLLIYYVSNRYTGVPDRFSGSGYGTDFTLTISSLQAEDVAVYFCQQDYSSWTFGGGTKVEIKRTVAAPSVFIFPPSDEQLKSGTASVVCLLNNFYPREAKVQWKVDNALQSGNSQESVTEQDSKDSTYSLSSTLTLSKADYEKHKVYACEVTHQGLSSPVTKSFNRGEC",–
–,0.16,0.00033,20.1,13.7,8.05,0.00194,240000,15.2,0.00393,259000,1610,1680,62.7,0.0423,674000,25.4,0.0113,445000,"1C4-zu1-hIgG1 DD (antibody, Fc mutant of 1C4-zu1-hIgG1 with S239D/H268D (EU numbering)) heavy: not shown light: DIVMTQSPKSLAVSLGERATINCKASQSVTNNVAWYQQKPGQPPKLLIYYVSNRYTGVPDRFSGSGYGTDFTLTISSLQAEDVAVYFCQQDYSSWTFGGGTKVEIKRTVAAPSVFIFPPSDEQLKSGTASVVCLLNNFYPREAKVQWKVDNALQSGNSQESVTEQDSKDSTYSLSSTLTLSKADYEKHKVYACEVTHQGLSSPVTKSFNRGEC",fold higher affinity than the antibody without DD [12]: 3 to 4 fold; fold higher affinity than the antibody without DD [13]: 6 to 9 fold; fold higher affinity than the antibody without DD [14]: 3 to 6 fold; fold higher affinity than the antibody without DD [15]: 3 to 4 fold
–,0.13,0.00512,20.2,11.9,11.8,0.0024,204000,38.5,0.00841,219000,5430,13400,326,0.03,92100,83,0.00798,96100,"1B5-zu1-hIgG1 (antibody, Humanized form of B1-1B5-H1L1; human IgG1 / kappa) heavy: not shown light: EIVLTQSPATLSLSPGERATLTCRASSSVSSSYLLWYQQKSGAAPRLWIYSTSNLASGVPARFSGSGSGTDFTLTISSLEPEDFATYYCQQYSGYPLTFGQGTKLEIKRTVAAPSVFIFPPSDEQLKSGTASVVCLLNNFYPREAKVQWKVDNALQSGNSQESVTEQDSKDSTYSLSSTLTLSKADYEKHKVYACEVTHQGLSSPVTKSFNRGEC",–
–,0.15,0.00044,19.9,12.1,11.1,0.00231,209000,35.1,0.00856,243000,1470,1530,51.8,0.0354,684000,21.5,0.0103,481000,"1B5-zu1-hIgG1 DD (antibody, Fc mutant of 1B5-zu1-hIgG1 with S239D/H268D (EU numbering)) heavy: not shown light: EIVLTQSPATLSLSPGERATLTCRASSSVSSSYLLWYQQKSGAAPRLWIYSTSNLASGVPARFSGSGSGTDFTLTISSLEPEDFATYYCQQYSGYPLTFGQGTKLEIKRTVAAPSVFIFPPSDEQLKSGTASVVCLLNNFYPREAKVQWKVDNALQSGNSQESVTEQDSKDSTYSLSSTLTLSKADYEKHKVYACEVTHQGLSSPVTKSFNRGEC",fold higher affinity than the antibody without DD [16]: 3 to 4 fold; fold higher affinity than the antibody without DD [17]: 6 to 9 fold; fold higher affinity than the antibody without DD [18]: 3 to 6 fold; fold higher affinity than the antibody without DD [19]: 3 to 4 fold
